In article PMC9367177 (iScience, 2022):

Biological target: T1, SARS-CoV-2 RBD (Wuhan-1) (SARS-CoV-2, Wuhan-1, UniProt P0DTC2)
T1 construct: source: Expi293, transfected, purified (Ni-NTA, SEC)
Experiment: SPR
Settings: both partners purified

B1: eCC6.30.9 (antibody, V domains shown)
VH: QVQLVQSGAEVKKPGSSVKVSCKASGGIFSIYAITWVRQAPGQGLEWMGAIIPIIGTANYAQKFQGRVTITADKSTSTAYMELSSLRSEDTAVYYCARDFRYCSSTRCYFNFDPWGQGTLVTVSS
VL: DIQMTQSPSSLSASVGDRVTITCRASQSISNYLNWYQQEAGKAPKLLIYTASSLQSGVPSRFSGSGSGTDFTLTISSLQPEDFATYYCQQSYSTPRTFGQGTKVDIK
notes: copies: 2 + 2
**Q.** How did the Kd turn out when B1 was run?
**A.** 0.0788 nM

**Q.** And the koff?
**A.** 0.000202 s⁻¹

**Q.** What about the kon of the same binder?
**A.** 2.57e+06 M⁻¹ s⁻¹

B2: eCC6.33.5 (antibody, V domains shown)
VH: QVQLVQSGAEVKKPGSSVKVSCKAVGGTFSSSAIYWVRQAPGQGLEWMGGIIPILDIANYAQKFQGRVTITADKSTSTAFMELSSLRSEDTAVYYCALRNQWDLVVYWGQGTLVTVSS
VL: EIVLTQSPGTLSLSPGERATLSCHASQSVSSSYLAWYQQKPGQAPRLLIYGAESRATGIPDRFSGSGSGTDFTLTISRLEPEDFAVYYCQHYGSSTWTFGQGTKLEIK
notes: copies: 2 + 2
**Q.** How did the Kd turn out when B2 was run?
**A.** 17.3 nM

**Q.** What about the koff of the same binder?
**A.** 0.00411 s⁻¹

**Q.** What about the kon of the same binder?
**A.** 237000 M⁻¹ s⁻¹

B3: eCC6.33.6 (antibody, V domains shown)
VH: QVQLVQSGAEVKKPGSSVKVSCKAPGGTFSSSAISWVRQAPGQGLEWMGGIIPILDITTYAQKFQGRVTITADKSTSTAFMELSSLRSEDTAVYYCALRNQWDLLIYWGQGTLVTVSS
VL: EIVLTQSPGTLSLSPGERATLSCRASQSVSSHYLAWYQQKPGQAPRLLIYGASSRYTGIPDRFSGSGSGTDFTLTISRLEPEDFAVYYCQHYGSSHWTFGQGTKLEIK
notes: copies: 2 + 2
**Q.** What does the source list for B3?
**A.** Kd: 13.3 nM; koff: 0.00167 s⁻¹; kon: 126000 M⁻¹ s⁻¹

B4: eCC6.33.9 (antibody, V domains shown)
VH: QVQLVQSGAEVKKPGSSVKVSCKSSGGTFSSSAYSWVRQAPGQGLEWMGTIIPILDITNYAQKFQGRVTITADKSTSTAFMELSSLRSEDTAVYYCAQRNQWDLIVYWGQGTLVTVSS
VL: EIVLTQSPGTLSLSPGERATLSCRASQWVSSSYIAWYQQKPGQAPRLLIYGAESRATGIPDRFSGSGSGTDFTLTISRLEPEDFAVYYCQHYGSSSWTFGQGTKLEIK
notes: copies: 2 + 2
**Q.** With B4 as the binder, how does the Kd read?
**A.** 14.3 nM

**Q.** And the koff?
**A.** 0.00218 s⁻¹

**Q.** What about the kon of the same binder?
**A.** 153000 M⁻¹ s⁻¹
